Results taken from patent US20220363757A1 (SYMPHOGEN A S, published 2022).

T1: human LAG-3 domain 1-2 Fc fusion, chimeric construct #16 (mutated region AA 98-105) (human, UniProt P18627 23-266)
T1 construct: not shown: human IgG1 Fc, AA P101-K330
T1 chain: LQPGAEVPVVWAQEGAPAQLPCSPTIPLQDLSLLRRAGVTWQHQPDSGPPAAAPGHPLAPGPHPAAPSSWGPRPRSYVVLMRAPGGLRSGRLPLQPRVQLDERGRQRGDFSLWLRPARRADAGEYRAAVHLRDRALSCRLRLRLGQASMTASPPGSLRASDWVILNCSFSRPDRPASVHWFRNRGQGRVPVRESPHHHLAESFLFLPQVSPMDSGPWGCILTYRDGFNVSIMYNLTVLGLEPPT

T2: human LAG-3 domain 1-2 Fc fusion, chimeric construct #3 (mutated region AA 40-41) (human, UniProt P18627 23-266)
T2 construct: not shown: human IgG1 Fc, AA P101-K330
T2 chain: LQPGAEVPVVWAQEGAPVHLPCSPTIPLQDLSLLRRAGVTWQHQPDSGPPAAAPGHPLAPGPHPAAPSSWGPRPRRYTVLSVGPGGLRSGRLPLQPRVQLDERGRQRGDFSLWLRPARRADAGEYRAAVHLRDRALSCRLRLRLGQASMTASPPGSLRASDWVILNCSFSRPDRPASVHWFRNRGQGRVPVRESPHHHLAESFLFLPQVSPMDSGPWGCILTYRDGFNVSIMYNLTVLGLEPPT

T3: human LAG-3 domain 1-2 Fc fusion, chimeric construct #18 (mutated region AA 114-119) (human, UniProt P18627 23-266)
T3 construct: not shown: human IgG1 Fc, AA P101-K330
T3 chain: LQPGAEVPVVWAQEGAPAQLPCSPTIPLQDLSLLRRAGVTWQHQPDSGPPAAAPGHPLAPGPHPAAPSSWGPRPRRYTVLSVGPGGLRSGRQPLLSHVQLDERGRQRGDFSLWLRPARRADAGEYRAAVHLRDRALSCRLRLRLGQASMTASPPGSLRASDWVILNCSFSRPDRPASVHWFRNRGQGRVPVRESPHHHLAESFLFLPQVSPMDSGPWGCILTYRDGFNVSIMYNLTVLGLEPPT

T4: human LAG-3 domain 1-2 Fc fusion, chimeric construct #10 (mutated region AA 70-77) (human, UniProt P18627 23-266)
T4 construct: 'Q71Q' copied as printed; construct #9 prints P71Q for the same position
T4 chain: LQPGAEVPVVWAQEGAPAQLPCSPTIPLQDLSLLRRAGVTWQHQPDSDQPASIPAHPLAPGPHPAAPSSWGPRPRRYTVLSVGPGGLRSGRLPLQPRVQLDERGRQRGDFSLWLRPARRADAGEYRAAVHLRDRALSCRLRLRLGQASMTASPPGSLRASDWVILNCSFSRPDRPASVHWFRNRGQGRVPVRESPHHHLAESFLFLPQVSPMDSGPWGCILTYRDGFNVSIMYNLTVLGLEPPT

T5: human LAG-3 domain 1-2 Fc fusion, chimeric construct #24 (mutated region AA 148-154) (human, UniProt P18627 23-266)
T5 construct: not shown: human IgG1 Fc, AA P101-K330
T5 chain: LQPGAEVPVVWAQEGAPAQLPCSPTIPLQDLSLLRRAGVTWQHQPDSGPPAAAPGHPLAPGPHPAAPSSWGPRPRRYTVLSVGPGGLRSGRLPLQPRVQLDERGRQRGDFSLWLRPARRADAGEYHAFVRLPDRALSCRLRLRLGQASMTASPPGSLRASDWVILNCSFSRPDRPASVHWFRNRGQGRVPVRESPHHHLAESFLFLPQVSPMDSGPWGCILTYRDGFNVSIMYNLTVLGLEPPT

T6: human LAG-3 domain 1-2 Fc fusion, chimeric construct #6 (mutated region AA 48-55) (human, UniProt P18627 23-266)
T6 construct: not shown: human IgG1 Fc, AA P101-K330
T6 chain: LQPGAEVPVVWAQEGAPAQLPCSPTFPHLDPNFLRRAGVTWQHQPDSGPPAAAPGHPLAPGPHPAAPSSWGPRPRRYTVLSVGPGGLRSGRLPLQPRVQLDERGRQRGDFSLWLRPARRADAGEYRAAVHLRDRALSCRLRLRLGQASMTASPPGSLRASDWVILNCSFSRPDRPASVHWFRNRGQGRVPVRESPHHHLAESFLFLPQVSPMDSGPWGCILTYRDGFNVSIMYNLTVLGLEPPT

T7: human LAG-3 domain 1-2 Fc fusion, chimeric construct #19 (mutated region AA 118-127) (human, UniProt P18627 23-266)
T7 construct: not shown: human IgG1 Fc, AA P101-K330
T7 chain: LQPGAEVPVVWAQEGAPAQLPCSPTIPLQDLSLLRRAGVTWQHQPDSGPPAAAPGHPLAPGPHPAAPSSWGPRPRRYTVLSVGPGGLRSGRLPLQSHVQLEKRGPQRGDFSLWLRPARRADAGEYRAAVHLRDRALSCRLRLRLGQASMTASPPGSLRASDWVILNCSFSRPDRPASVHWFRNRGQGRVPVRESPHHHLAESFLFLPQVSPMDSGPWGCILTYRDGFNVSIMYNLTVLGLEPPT

T8: human LAG-3 domain 1-2 Fc fusion, chimeric construct #11 (mutated region AA 74-82) (human, UniProt P18627 23-266)
T8 construct: not shown: human IgG1 Fc, AA P101-K330
T8 chain: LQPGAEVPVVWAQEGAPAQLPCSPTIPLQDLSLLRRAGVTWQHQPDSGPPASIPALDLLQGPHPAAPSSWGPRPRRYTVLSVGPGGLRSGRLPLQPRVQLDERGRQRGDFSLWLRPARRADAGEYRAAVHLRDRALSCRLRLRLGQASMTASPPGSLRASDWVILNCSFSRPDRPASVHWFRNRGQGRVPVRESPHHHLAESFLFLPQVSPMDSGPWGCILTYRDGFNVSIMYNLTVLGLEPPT


How the values were obtained:
Assay in all cases: SPR, Fab over captured mutant LAG-3-Fc;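 note: LAG-3 fusion proteins captured on an anti-human IgG Fc sensor chip and read on an IBIS MX96 biosensor, Fab association and dissociation each 15 min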
[1] = molecular target: T1, human LAG-3 domain 1-2 Fc fusion, …
Protocol: (§1) The LAG-3 fusion proteins were immobilized onto a G-a-hu-IgG Fc SensEye® (Ssens BV, The Netherlands) for 15 minutes using a Continuous Flow Microspotter (CFM, Wasatch Microfluidics, Salt Lake City, US). After spotting, the SensEye® was positioned in an IBIS MX96 biosensor and captured proteins were evaluated for binding affinity. […] Fab association was performed for 15 minutes and antigen dissociation was performed for 15 minutes. The recorded binding responses were fitted to a simple Langmuir 1:1 binding model with Scrubber 2 software for calculation of the on-rate (kon or ka), off-rate (koff or kd) and affinity (KD) constants.

[2] = molecular target: T2, human LAG-3 domain 1-2 Fc fusion, …
Protocol: as §1

[3] = molecular target: T3, human LAG-3 domain 1-2 Fc fusion, …
Protocol: as §1

[4] = molecular target: T4, human LAG-3 domain 1-2 Fc fusion, …
Protocol: as §1

[5] = molecular target: T5, human LAG-3 domain 1-2 Fc fusion, …
Protocol: as §1

[6] = molecular target: T6, human LAG-3 domain 1-2 Fc fusion, …
Protocol: as §1

[7] = molecular target: T7, human LAG-3 domain 1-2 Fc fusion, …
Protocol: as §1

[8] = molecular target: T8, human LAG-3 domain 1-2 Fc fusion, …
Protocol: as §1

| binding result [1] | binding result [2] | KD mutant/KD wild type [3] [fold] | KD mutant/KD wild type [4] [fold] | binding result [5] | binding result [6] | binding result [7] | KD mutant/KD wild type [8] [fold] | KD mutant/KD wild type [1] [fold] | KD mutant/KD wild type [2] [fold] | KD mutant/KD wild type [5] [fold] | KD mutant/KD wild type [6] [fold] | KD mutant/KD wild type [7] [fold] | Binder |
| --- | --- | --- | --- | --- | --- | --- | --- | --- | --- | --- | --- | --- | --- |
| no binding (tested: 300 nM) | no binding (tested: 300 nM) | 0.6 | 0.7 | no binding (tested: 300 nM) | no binding (tested: 300 nM) | no binding (tested: 300 nM) | 0.5 |  |  |  |  |  | Fab fragment of antibody 15572 (Fab, V domains shown, not shown: a dimerising Fc or GST, monomeric Fab made by GingisKHAN digestion of the IgG1) VH: QLQLQESGPGLVKPSETLSLTCTVSGDSISSSSYYWGWIRQPPGKGLEWIGSIFYSGNTYYNPSLKSRVTISVDTSKNQFSLKLSSVTAADTAVYYCAREDDFLTDYYGAFDIWGQGTMVTVSS VL: not shown |
|  |  | 2.1 | 1.8 |  |  |  | 0.6 | 7.2 | 0.5 | 1.9 | 0.5 | 0.6 | Fab fragment of antibody 15011 (Fab, V domains shown, not shown: a dimerising Fc or GST, monomeric Fab made by GingisKHAN digestion of the IgG1) VH: EVQLLESGGGLVQPGGSLRLSCAASGFDFRSYAMMWVRQAPGKGLEWVGGINGEVGGSNTYYAPAVKGRATISRDNSKNTLYLQMNSLRAEDTAVYYCVKGAGACGICNDDIDAWGQGTLVTVSS VL: SYELTQDPAVSVALGQTVRITCSGAGSYAGSYYYGWHQQKPGQAPVTVIYDNDKRPSNIPDRFSGSSSGNTASLTITGAQAEDEADYYCGSTNDNDDGGLFGSGTKVTVLG |
|  |  | 1.1 | 1.1 |  |  |  | 1.5 | 6.3 | 2.2 | 2.6 | 3.4 | 0.5 | Fab fragment of antibody 15532 (Fab, V domains shown, not shown: a dimerising Fc or GST, monomeric Fab made by GingisKHAN digestion of the IgG1) VH: QVQLQQWGAGLLRPSETLSLTCAVYGESFSGYYWNWIRQPPGKGLEWIGEINHSGSTNYNPSLKSRVTISVDTSKTQFSLKLSSVTAADTAVYYCARGWDLLDWNDYWNEYWGQGTLVTVSS VL: EIVLTQSPATLSLSPGERATLSCRASQSVSSYLAWYQQKPGQAPRLLIYDASNRATGIPARFSGSGSGTDFTLTISSLEPEDFAVYYCQQRSNWPLTFGGGTKVEIKR |
| no binding (tested: 300 nM) | no binding (tested: 300 nM) | 0.6 | 1.1 |  | no binding (tested: 300 nM) |  | 0.4 |  |  | 10.6 |  | 0.5 | Fab fragment of antibody 15431 (Fab, V domains shown, not shown: a dimerising Fc or GST, monomeric Fab made by GingisKHAN digestion of the IgG1) VH: QVQLQQSGPGLVKPSQTLSLTCAISGDSVSSNSAAWNWIRQSPSRGLEWLGRTYYRSKWYNDYAVSVKSRITINPDTSKNQFSLQLNSVTPEDTAVYYCARDDDWNDFDYWGQGTLVTVSS VL: EIVLTQSPATLSLSPGERATLSCRASQSVSSYLAWYQQKPGQAPRLLIYDASNRATGIPARFSGSGSGTDFTLTISSLEPEDFAVYYCQQRSNWPLTFGGGTKVEIKR |
